Reference: US20160178645A1 (University of California, published 2016)

Target: T1, human Aβ1-42 oligomers (human, UniProt P05067 672-713, fluorescently labeled in the TIRF imaging (HiLyte Fluor 647-labeled peptide bought, paragraph 100; 'AlexFlour647-conjugated' in paragraph 102); position not stated)
T1 construct: domain: Aβ1-42; Preformed oligomers; only the Aβ1-42 peptide was used; also called labeled Aβ1-42 oligomers; HiLyte Fluor 647-labeled Aβ1-42
Assay: TIRF single molecule imaging with photobleaching of aggregates formed in Httl4A2.6 lysates (data not shown)
Description: Httl4A2.6 cells were treated with 0.5 μM of Aβ1-40, Aβ1-42, alpha-synuclein, and A53T alpha-synuclein, Alzheimer's disease (AD), and Parkinson's disease—associated oligomers, in the same manner as polyQ seeds. No significant enhancement of intracellular mHttex 1-GFP aggregates was detected (data not shown). Confirming results were obtained from filter retardation-GFP immunoblotting following cell-free aggregation assays; no notable changes in mHttex1 aggregation were found in the cell lysates with up to 5 μM of Aβ1-40, Aβ1-42, alpha-synuclein, and A53T alpha-synuclein oligomeric seeds (data not shown). These observations were further corroborated by the total internal reflection microscopy (TIRF) single molecule imaging results based on photobleaching of mHttex1-GFP aggregates formed in Httl4A2.6 lysates seeded with either AlexFlour647-conjugated polyQ or Aβ1-42 oligomers (data not shown). In contrast to the polyQ oligomers, which were mostly linked with mHttex1-GFP aggregates from photobleaching imaging, few labeled Aβ1-42 oligomers overlapped with GFP fluorescence from the mHttex1-GFP aggregates.

T1 sequence (P05067 672-713 limits assumed): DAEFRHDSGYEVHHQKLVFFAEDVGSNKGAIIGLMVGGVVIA

B1: mHttex1-GFP (truncated expanded repeat Httn exon 1 protein fused at the C-terminus to EGFP) (other)
chain: MATLEKLMKAFESLKSFQQQQQQQQQQQQQQQQQQQQQQQQQQQQQQQQQQQQQQQQQQQQQQQQQQQQQQQQQQQQQQQQQQQQQQQQQQQQQQQQQQQQQQQQQQQQQQQQQQQQQQ
notes: Expressed in Httl4A2.6 inducible PC12 cells after Ponasterone A induction; tested inside cells or in cell lysate supernatants; No linker between Httn part and EGFP is described; also called N17-103Q-EGFP; GFP-tagged mHtt exon 1 protein; not shown: enhanced green fluorescent protein (EGFP), fused at the C-terminus; EGFP is an eng
binding result: no binding
